Assay results published in US20210087250A1, “PHARMACEUTICAL COMPOSITIONS FOR THE TRANSMUCOSAL DELIVERY OF THERAPEUTIC PEPTIDES AND PROTEINS” (CYPRUMED GMBH, priority 2018, published 2021).
Read-outs that look alike come from different tables or passages of the source. One block for each molecule: values may come before it.

How the values were obtained:
[1] = test system: human nasal cell line RPMI 2650; assay: Permeation of semaglutide through human nasal cells; format: in vitro ADME; settings: 0.5 mg/ml semaglutide in KRB with 5% arginine HCl versus KRB only
Procedure: All permeation studies were performed with RPMI 2650 models after 3 weeks of cultivation. Furthermore, the whole equipment was pre-warmed to 37° C. All steps were performed at 37° C. Prior to permeation, TEER values were measured using EVOM® combined with Endohm® Chamber from World Precision Instruments (WPI, Sarasota, Fla., US).
RPMI models were incubated for 60 min in KRB. Meanwhile sample solution containing excipients and active pharmaceutical ingredients were prepared. Subsequent to the incubation period, TEER values were determined again.
Before permeation, the KRB was removed from both sides of the RPMI models and 1200 μL KRB as acceptor volume were added. Then, 200 μL of the formulations (containing 0.5 mg/ml of Semaglutide each; reference formulation in KRB only, sample formulation in KRB containing 5% of arginine HCl) were applied to the apical surface of each RPMI model. With this step the permeation time was started. After two hours of exposition the acceptor was entirely removed, transferred to Eppendorf tubes and replaced by 1200 μL pre-warmed KRB. Four hours after starting the experiment the total amount of the acceptor was withdrawn again. During permeation the cell culture plates were shaken horizontally with 200 U/min at 37° C.

[2] = test system: RPMI 2650 cells; assay: CellTiter 96 AQueous One Solution cell proliferation cytotoxicity assay (MTS); format: cell-based, human; settings: 2.5% and 5.0% (m/V) in KRB, up to 120 min
Procedure: CellTiter 96® AQueous One Solution Cell proliferation Assay from Promega (Mannheim, Germany) is a colorimetric method for determining the number of viable cells in a cytotoxicity assay. The MTS tetrazolium compound is bioreduced by viable cells in a colored formazan product. The quantity of formazan is directly proportional to the number of living cells and can be measured by absorbance at 490 nm. This assay was performed to determinate cytotoxic effects of Arginine HCl in the concentrations of 2.5% and 5.0% (m/V) on RPMI 2650 cells.
RPMI 2650 cells were seeded onto a 96-well tissue culture test plate at a density of 60,000 cells per well for 24 h. Arginine HCl was dissolved in KRB. Medium was removed from the cells and replaced by 100 μL excipient solutions per well. Cells were incubated with excipient solutions for 0 min, 15 min, 30 min, 60 min and 120 min. Furthermore, cells were incubated with KRB, 1.0% Triton-X solution (V/V) for the same incubation periods as negative and positive controls, respectively. Bacitracin (BAC) served as reference.
The CellTiter 96® AQueous One Solution Cell proliferation Assay was carried out following the manufacturer's protocol. […]
After the incubation period the samples were analyzed immediately. Absorbance was recorded at 490 nm and measured by using a microplate reader Infinite® M Plex (Tecan, Switzerland).

[3] = test system: MDCK cells; assay: Transepithelial electrical resistance (TEER) measurement; format: cell-based; settings: 2.5% and 5%
Procedure: The cellZscope from nanoAnalytics (Munster, Germany) was used for continuous evaluation of TEER as a surrogate parameter of tight junction functionality. MDCK cells were grown on 1.12 cm^2, 1.0 μm transparent filter inserts (ThinCerts™, Greiner Bio-One, Frickenhausen, Germany) with a seeding density of 100,000 cells per well. The medium was changed at cultivation days 3, 4 and 5. TEER measurements were performed on day 5 when cells reached a resistance of approximately 3,500 Ω·cm^2 starting with the replacement of the growth medium by an equivalent volume of KRB, pH 7.4 (500 μL apical, 1,500 μL basolateral) and cell incubation for 60 min. After this preincubation, 250 μL of KRB was removed from the insert, and the same volume of double-concentrated sample solution (Arginine HCl in KRB) was added to the 250 μL KRB inside the insert to reach the desired concentration. Afterwards, impedance measurements were performed for 180 min with a frequency range of 1 Hz to 100 kHz at 37° C. and 5% CO2 inside the incubator.
Subsequently, the cells were carefully washed with fresh KRB and incubated in medium, and TEER was monitored up to 24 h in 30 min time intervals after the start of the experiment to evaluate TEER recovery. The results (shown in FIG. 7) are given as the relative TEER reduction, defined as the percentage change of the starting value corrected by the baseline value.

[4] = biological target: desmopressin
[5] = biological target: desmopressin; remark: listed apart in the source
[6] = biological target: T1, PTH(1-34) (Homo sapiens (Human)) (UniProt P01270)
T1 sequence (peptide): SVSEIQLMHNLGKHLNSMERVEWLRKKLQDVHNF

[7] = biological target: T1, PTH(1-34) (Homo sapiens (Human)); remark: listed apart in the source
[8] = biological target: adalimumab
[9] = biological target: T1, PTH(1-34) (Homo sapiens (Human)); remark: listed apart in the source

Molecule: Cl.N=C(N)NCCC[C@H](N)C(=O)O [arginine HCl, arginine hydrochloride]
permeation of semaglutide across human nasal cells [1]: improves the permeation of semaglutide
cell viability [2]: Only a minor decrease in cell viability
TEER ([3]; 180 min): strong decrease in TEER
reversibility of tight junction opening (TEER recovery) ([3]; up to 24 h): fully reversible

Intact desmopressin after 5 hours incubation (%) [4]: 7%
Molecule: chymotrypsin (enzyme)

Peptide recovery [5]: 20%
% intact PTH(1-34) [6]: 0%
Molecule: pancreatin (pool or library)

Intact PTH(1-34) [7]: 0%
Molecule: pepsin (enzyme)

% intact Adalimumab [8]: 82%
Intact PTH(1-34) [9]: 0%
Molecule: trypsin (enzyme)
